The text below walks through data of the nanobody polyreactivity screen of Harvey et al. (2022).

This data set can be described thus: yeast display, Sf9 membrane polyspecificity reagent, FACS + sequencing; frameworks hold sequencing errors. In short, it runs like this:
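Galactose-induced (36–48 hours) yeast carrying a synthetic nanobody display library were exposed to 10% biotinylated, detergent-solubilized Sf9 membrane reagent at 4 °C for 1 hour. FACS followed streptavidin microbead enrichment, using low and high (top ~1%) gates for expression (anti-HA) and reagent binding (streptavidin). Colony PCR, MiSeq 2 × 250 sequencing and CDR-length filtering followed. Labels for polyreactivity reflect the gate of origin.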
With “QVQLVESGGGLVQAGGSLRLSCAASGSTFPYYAMGWYRQAPGKERELVAVITSSGSRTYYADSVKGRFTISRDNAKNTVYLPMNSLKPEDTAVYYCARDTRYYLPYRSQYDYWGQGTQVTVSS”, the “polyreactivity (PSR sort gate)” value is recorded as “high polyreactivity”. “QVQLVESGGGLVQAGGSLRLSCAASGSTFQDNAMGWYRQAPGKERELVAVITRTGGDTNYADSVKGRFTISRDNAKNTVYLQMNSLKPEDTAVYYCAADNVYVTWFYYWGQGTQVTVSS”: the “polyreactivity (PSR sort gate)” value is listed as “low polyreactivity”.

In the case of “QVQLVESGGGLVQAGGSLRLSCAASGSTFQFYALGWYRQAPGKERELVAAISVSGDRTYYADSVKGRFTISRDYAKNTVYLQMNSLKPEDTAVYYCAASIWHFEVVSWYLYDYWGQGTQVTVSS”, the “polyreactivity (PSR sort gate)” value is on record as “high polyreactivity”.

Consider “QVQLVESGGGLVQAGGSLRLSCAASGSTFQFYAMGWYRQAPGKERELVAAISVSGDRTYYADSVKGRFTISRDNAKNTVYLQMNSLKPEDTAVYYCAARYGPFKRRFDYWGQGTQVTVSS”, for which the “polyreactivity (PSR sort gate)” value is recorded as “high polyreactivity”.

“QVQLVESGGGLVQAGGSLRLSCAASGSTFQGYAMGRYRQAPGKERELVAGITGSGGSSYYADSVKGRFTISRDNAKNTVYLQMNSLKPEDTAVYYCAARYYQSYYYKYYYWGQGTQVTVSS”: the “polyreactivity (PSR sort gate)” value was “high polyreactivity”.

With “QVQLVESGGGLVQAGGSLRLSCAASGSTFQGYTMGWYRQAPGKERELVAAISVRRGITYYADSVKGRFTISRDNAKNTVYLQMNSLKPEDTAVYYCNAYYYRPYGNKYGYWGQGTQVTVSS”, the “polyreactivity (PSR sort gate)” value is “high polyreactivity”. On to “QVQLVESGGGLVQAGGSLRLSCAASGSTFQLYAMGWYRQAPGKERELVAGISRDGSTYYADSVKGRFTISRDNAKNTVYLQMNSLKPEDTAVYYCAAKYYGNKRDLYYWGQGTQVTVSS”, for which the “polyreactivity (PSR sort gate)” value is “low polyreactivity”.

On to “QVQLVESGGGLVQAGGSLRLSCAASGSTFQLYDMGWYRQEPGKERELVAGISRDGSTYYADSVKGRFTISRDNAKNTVYLLMNSLKPEDTAVYYCAAKFYGNKRDLYYWGQGTQVTVSS”, for which the “polyreactivity (PSR sort gate)” value is “low polyreactivity”. Then “QVQLVESGGGLVQAGGSLRLSCAASGSTFQLYSMGWYRQAPGKERELVAAIRWRGGSTYYADSVKGRFTISRDNAKNTVYLQMNSLKPEDTAFYYCAAVGYNYNVEYYYWGQGTQVTVSS”, with “high polyreactivity”; and “QVQLVESGGGLVQAGGSLRLSCAASGSTFQNNAMGWYRQAPGKERELVATISRRGGSTYYADSVKGRFTISRDIAKNTVYLQMNSLKPEDTAVYYCTGRDYWGQGTQVTVSS”, with “high polyreactivity”. For “QVQLVESGGGLVQAGGSLRLSCAASGSTFQPYAMGWSRQAPGKERECVATISGSAGSTYYADSVKGRFKISRDNAKNTVYLQMNSLKPEDTAVYYCKAESPEGYRLLDYWGQGTQVTVSS”, the “polyreactivity (PSR sort gate)” value is reported as “low polyreactivity”. Then “QVQLVESGGGLVQAGGSLRLSCAASGSTFQPYAMGWYRPAPGKERELVAAIRYSGGITYYADSVKGRFTISRDNAKNSVYLQMNSLKPEDTAVYYCAAYGFYGGDYWGQGTQVTVSS”, with “high polyreactivity”; and “QVQLVESGGGLVQAGGSLRLSCAASGSTFQRYAMGWYRQAPGKERELVAAINKSGGTTYYADSVKGRFTISRDNAKNTVYLLMNSLKPEDTAVYYCATDNPVVYQPGNMDYWGQGTQVTVSS”, with “low polyreactivity”. In the case of “QVQLVESGGGLVQAGGSLRLSCAASGSTFQRYAMGWYRQAPGKERELVAVITNGGSTKYADSVKGRFTISRDNAKNTVYLQMNSLKPEDTAVYYCAAGLRSWSTGLWYGYWGQGTQVTVSS”, the “polyreactivity (PSR sort gate)” value is “high polyreactivity”. On to “QVQLVESGGGLVQAGGSLRLSCAASGSTFQRYTMGWYRQPPGKERELVAAISQSGGRTYYADSVKGRFTISRDNAKNTVYLQMNSLKPEDTAVYYCNAASRTKFDYWGQGTQVTVTS”, for which the “polyreactivity (PSR sort gate)” value is “high polyreactivity”. As to “QVQLVESGGGLVQAGGSLRLSCAASGSTFQSNAMGWYRQAPGKERELVATISWSGGITYADSVKGRFTISRDNAKNTVYLQMNSLKPEDNAVHYFTDPDFDYWGQGTQVTLSS”, the “polyreactivity (PSR sort gate)” value is on record as “low polyreactivity”.

For the sequence “QVQLVESGGGLVQAGGSLRLSCAASGSTFQSNAMGWYRQAPGKERELVATITQSGATTYYADSVKGRFTISRDNAKNTVYLQMNSLKPEDTAVYYCNVDTYQKRWFWLDLDGGYWGQGTQVTVSS”, the “polyreactivity (PSR sort gate)” value is on record as “low polyreactivity”.

With “QVQLVESGGGLVQAGGSLRLSCAASGSTFQSYTMGWYRQAPGKERELVAGISRSGGSTYYADSVKGRFTISRDNAKNTVYLQMNSLKPEDTAVYYCAAAFYGRWGGFDYWGQGTQVTVSS”, the “polyreactivity (PSR sort gate)” value is given as “high polyreactivity”.

Take “QVQLVESGGGLVQAGGSLRLSCAASGSTFQTYAMGGYRQAPGKEREFVAAITSGGSTNYADSVKGRFTISRDNAKNTVYLQMNSLKPEDTAVYYCAVRQIYQTSDHRLQYDYWGQGTQVTVSS”: the “polyreactivity (PSR sort gate)” value is listed as “low polyreactivity”. For the sequence “QVQLVESGGGLVQAGGSLRLSCAASGSTFQTYAMGWYRQAPGKERELVAAITYGGSTNYADSVKGRFTMSRANAKNTVYLLMNSLKPEDTAVYYCAARDGDQRPRLRYDYWAQGTQVTVSS”, the “polyreactivity (PSR sort gate)” value was “low polyreactivity”. Then “QVQLVESGGGLVQAGGSLRLSCAASGSTFQVYAMGWYRPAPRKERELVATIRRTGGSTYYADSVKGRFTISRDNAKNTVYLQMNSLKPEDTAVYYCAARTYGGIVLRLDYWGQGTQVTVSS”, with “high polyreactivity”; and “QVQLVESGGGLVQAGGSLRLSCAASGSTFQVYAMGWYRQAPGKERELVAAISNGGRTNYADSVKGRFTISRDNAKNTVYLLMNSLKPEDTAVYYCNADQVWWSFDRVLVGYEYWGQGTQVTVSS”, with “low polyreactivity”. In the case of “QVQLVESGGGLVQAGGSLRLSCAASGSTFQVYGMGWYRQAPGKERELGAAISRSGGRTYYADSVKGRFTISRDNAKNTVYLQMNSLKPEDTAVYYCNAPISYYDEYYYWGQGTQVTVSS”, the “polyreactivity (PSR sort gate)” value was “high polyreactivity”. On to “QVQLVESGGGLVQAGGSLRLSCAASGSTFQWNAMGWYRQAPGKERELVAAISKSGGRTYYADSVKGRFTISRDNAKNTVYLQMNSLKPEDTAVYYCNALGSLDGRYGYWGQGTQVTVSS”, for which the “polyreactivity (PSR sort gate)” value is reported as “high polyreactivity”. For “QVQLVESGGGLVQAGGSLRLSCAASGSTFQYNAMGWYRQAPGKERELVAAISLSGGSTYYADSVKGRFTISRDNAKNTVYLQMNSLKPEDTAVYYCATEYYVYDYYYWAWYGYEYWGQGTQVTVSS”, the “polyreactivity (PSR sort gate)” value was “high polyreactivity”.

As to “QVQLVESGGGLVQAGGSLRLSCAASGSTFQYYAMGWYRQAPGKEGELVATINSGGSTNYADSVKGRFTISRDNAKNTVYLQMNSLKPEDTAVYYCARRVRYKHYDYWGQGTQVTVSS”, the “polyreactivity (PSR sort gate)” value is listed as “high polyreactivity”. Take “QVQLVESGGGLVQAGGSLRLSCAASGSTFQYYAMGWYRQAPGKERELVAAITHSGTRTYYADSVKGRFTISRDNAKNTVYLQMNSLKPEDTAVYYCAARGYGKYDYWGQGTQVTVSS”: the “polyreactivity (PSR sort gate)” value is listed as “high polyreactivity”. On to “QVQLVESGGGLVQAGGSLRLSCAASGSTFQYYAMGWYRQAPGKERELVARISDSSANTYYADSVKGRFTISRDNAKNTVYLQMNSLKPEDTAVYYCAASVPYKFYSVVSVRYEYWGQGTQVTVSS”, for which the “polyreactivity (PSR sort gate)” value is “low polyreactivity”.

Regarding “QVQLVESGGGLVQAGGSLRLSCAASGSTFQYYAMGWYRQAPGKERELVASISLSGTSTYYADSVKGRFTISRDNAKNTVYLQMNSLKPEDTAVYYCAADIVPWWASFLYDGEDYWGQGTQVTVSS”, the “polyreactivity (PSR sort gate)” value is given as “low polyreactivity”. Take “QVQLVESGGGLVQAGGSLRLSCAASGSTFQYYAMGWYRQAPGKERELVDAISPSVDTTFYADSVKGRFTISRDNAKNTVYLQMNSLKPEDTAVYFCAKRYVDPLGSGTLGSWGQGTQVTVSS”: the “polyreactivity (PSR sort gate)” value is recorded as “low polyreactivity”.

Consider “QVQLVESGGGLVQAGGSLRLSCAASGSTFRAYAMGWYRQAPGTEWELVAAISAGGSTNYADSVKGRFTISRDHAKNTVSLQMNCLKRDDTAVYYCAKGWYYVSPYGYRKRVYYWGQGTQVTVSS”, for which the “polyreactivity (PSR sort gate)” value is “high polyreactivity”. Then “QVQLVESGGGLVQAGGSLRLSCAASGSTFRDYAMGWSRQAPGKERELVAVISSSGSRTNYADSVKGRFTISRDNAKNTVYLQMNSLKREDTAVYYCAADTTRRAPGYYYWGQGTQVTVSS”, with “high polyreactivity”. Take “QVQLVESGGGLVQAGGSLRLSCAASGSTFREYAMGWYIQAPGKERELVAAITSRGGSTYYADSVKGRFTISRDNAKNTVYLQMNSLKPEDTAVYYCAADHGTKAEYYYWGQRTQVTVSS”: the “polyreactivity (PSR sort gate)” value is recorded as “high polyreactivity”. Consider “QVQLVESGGGLVQAGGSLRLSCAASGSTFRFYAMGWYRQAPGKERELVAAISSGGSTNYADSVKGRFTISRDNAKNTVYLQMNSLKPEDTAVYYCNAEDYNGRQYYHKMDYWGQGTQVTVSS”, for which the “polyreactivity (PSR sort gate)” value is given as “high polyreactivity”.

As for “QVQLVESGGGLVQAGGSLRLSCAASGSTFRGNAMGWSRQAPGKERELVAAISSSGGSTYYADSVKGRFTISRDNAKNTVYLQMNSLKPEDTAVYYCAALYHWTYDYWGQGTQVTVSS”, the “polyreactivity (PSR sort gate)” value is “low polyreactivity”.

For the sequence “QVQLVESGGGLVQAGGSLRLSCAASGSTFRGYAMGWYRKATGKERELVATNSGSDGTTYYADSVKGRFTISRENAKNTVYLQMNSLKPEDTAVYYCAAGETFEMYYWGQGTQVTVSS”, the “polyreactivity (PSR sort gate)” value is recorded as “low polyreactivity”.

As to “QVQLVESGGGLVQAGGSLRLSCAASGSTFRGYAMGWYRQAPGKEREFVAAITYTGSSTTYADSVKGRFTISRDNAKNTVYLQMNSLKPEDTAVYYCNKYTRFASSNMYYWGQGTQVTVSS”, the “polyreactivity (PSR sort gate)” value was “high polyreactivity”. For the sequence “QVQLVESGGGLVQAGGSLRLSCAASGSTFRGYAMGWYRQAPGKERELVAAISWSAGSTYYADSVKGRFTISRDNAKNTVYLQMNRLKPEDTAVYYCAKASVALRYFSYSLGRDYWGQGTQVTVSS”, the “polyreactivity (PSR sort gate)” value was “low polyreactivity”. With “QVQLVESGGGLVQAGGSLRLSCAASGSTFRGYAMGWYRQAPGKERELVAAITGSGDRTRYADSVKGRFTISRDNAKNTVYIQMNSLKPEDTAVYYCAKFCPHWAYYSWGQGTQVTVSS”, the “polyreactivity (PSR sort gate)” value is “high polyreactivity”.

On to “QVQLVESGGGLVQAGGSLRLSCAASGSTFRGYAMGWYRQAPGKERELVAAITSSGGSTYYADSVKGRFTISRDNAKNTVYLQMNSLKPEDTAVYYCAAEGGYWYTITYSYWLDYWGQGTQVTVSS”, for which the “polyreactivity (PSR sort gate)” value is given as “low polyreactivity”. Under “QVQLVESGGGLVQAGGSLRLSCAASGSTFRGYTMGWYRQAPGKERELVATISYRSGSTSYADSVKGRFTISRDNAKNTVYLQMNSLKPEDTAVYYCNRVYSKPRYYYWGQGTQVTVSS” stands “high polyreactivity”.
